IntAct's records for PubMed 36931259

B1: Serine/arginine-rich splicing factor 10 (Homo sapiens), O75494 (parent)
chain: MSRYLRPPNTSLFVRNVADDTRSEDLRREFGRYGPIVDVYVPLDFYTRRPRGFAYVQFEDVRDAEDALHNLDRKWICGRQIEIQFAQGDRKTPNQMKAKEGRNVYSSSRYDDYDRYRRSRSRSYERRRSRSRSFDYNYRRSYSPRNSRPTGRPRRSRSHSDNDRFKHRNRSFSRSKSNSRSRSKSQPKKEMKAKSRSRSASHTKTRGTSKTDSKTHYKSGSRYEKESRKKEPPRSKSQSRSQSRSRSKSRSRSWTSPKSSGH
partner: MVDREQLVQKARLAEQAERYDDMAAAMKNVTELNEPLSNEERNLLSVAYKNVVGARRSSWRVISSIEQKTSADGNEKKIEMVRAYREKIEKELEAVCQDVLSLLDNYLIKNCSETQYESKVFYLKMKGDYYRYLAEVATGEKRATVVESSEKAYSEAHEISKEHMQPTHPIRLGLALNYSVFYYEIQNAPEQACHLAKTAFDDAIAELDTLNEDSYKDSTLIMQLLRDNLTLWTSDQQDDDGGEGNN
B2: 14-3-3 protein sigma (Homo sapiens), P31947 (parent)
chain: MERASLIQKAKLAEQAERYEDMAAFMKGAVEKGEELSCEERNLLSVAYKNVVGGQRAAWRVLSSIEQKSNEEGSEEKGPEVREYREKVETELQGVCDTVLGLLDSHLIKEAGDAESRVFYLKMKGDYYRYLAEVATGDDKKRIIDSARSAYQEAMDISKKEMPPTNPIRLGLALNFSVFHYEIANSPEEAISLAKTTFDEAMADLHTLSEDSYKDSTLIMQLLRDNLTLWTADNAGEEGGEAPQEPQS
partner: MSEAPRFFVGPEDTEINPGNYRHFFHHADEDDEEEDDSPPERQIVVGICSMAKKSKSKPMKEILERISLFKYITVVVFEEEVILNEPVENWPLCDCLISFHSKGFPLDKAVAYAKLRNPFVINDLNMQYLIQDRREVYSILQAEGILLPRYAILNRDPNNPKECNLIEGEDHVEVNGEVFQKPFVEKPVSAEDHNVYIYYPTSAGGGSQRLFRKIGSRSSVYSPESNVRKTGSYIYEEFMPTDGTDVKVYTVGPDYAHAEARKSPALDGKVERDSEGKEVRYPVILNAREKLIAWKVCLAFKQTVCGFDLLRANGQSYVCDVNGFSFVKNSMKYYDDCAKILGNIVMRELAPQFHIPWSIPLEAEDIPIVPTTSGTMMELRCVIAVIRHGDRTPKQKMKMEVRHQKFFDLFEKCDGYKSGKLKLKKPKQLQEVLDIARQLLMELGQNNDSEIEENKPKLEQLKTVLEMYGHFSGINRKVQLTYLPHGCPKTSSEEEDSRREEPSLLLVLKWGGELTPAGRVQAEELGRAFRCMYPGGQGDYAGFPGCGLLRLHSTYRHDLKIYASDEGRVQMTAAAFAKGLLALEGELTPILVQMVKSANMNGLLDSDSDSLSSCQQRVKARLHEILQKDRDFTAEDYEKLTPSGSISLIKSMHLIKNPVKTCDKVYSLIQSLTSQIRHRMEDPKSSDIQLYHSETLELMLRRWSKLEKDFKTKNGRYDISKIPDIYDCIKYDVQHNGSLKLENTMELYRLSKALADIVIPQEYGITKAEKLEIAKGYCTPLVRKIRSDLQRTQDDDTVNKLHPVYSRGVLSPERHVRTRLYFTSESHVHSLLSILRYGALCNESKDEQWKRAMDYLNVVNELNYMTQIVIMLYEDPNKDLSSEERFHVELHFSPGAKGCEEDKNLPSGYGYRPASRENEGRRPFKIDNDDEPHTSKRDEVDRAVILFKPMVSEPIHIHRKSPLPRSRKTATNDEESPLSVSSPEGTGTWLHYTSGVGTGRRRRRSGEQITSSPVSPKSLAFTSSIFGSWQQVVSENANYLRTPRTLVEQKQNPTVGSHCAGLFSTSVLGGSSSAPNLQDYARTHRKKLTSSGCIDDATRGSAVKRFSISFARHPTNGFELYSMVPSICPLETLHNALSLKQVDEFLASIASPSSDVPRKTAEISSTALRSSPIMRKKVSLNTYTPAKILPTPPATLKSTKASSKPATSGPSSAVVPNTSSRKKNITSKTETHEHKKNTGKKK
B3: Glutamate receptor-interacting protein 1 (Homo sapiens), Q9Y3R0-3 (parent)
chain: MIAVSFKCRCQILRRLTKDESPYTKSASQTKPPDGALAVRRQSIPEEFKGSTVVELMKKEGTTLGLTVSGGIDKDGKPRVSNLRQGGIAARSDQLDVGDYIKAVNGINLAKFRHDEIISLLKNVGERVVLEVEYELPPVSVQGSSVIFRTVEVTLHKEGNTFGFVIRGGAHDDRNKSRPVVITCVRPGGPADREGTIKPGDRLLSVDGIRLLGTTHAEAMSILKQCGQEAALLIEYDVSVMDSVATASGPLLVEVAKTPGASLGVALTTSMCCNKQVIVIDKIKSASIADRCGALHVGDHILSIDGTSMEYCTLAEATQFLANTTDQVKLEILPHHQTRLALKGPDHAALVSSSFSPTSMSAYSLSSLNMGTLPRSLYSTSPRGTMMRRRLKKKDFKSSLSLASSTVGLAGQVVHTETTEVVLTADPVTGFGIQLQGSVFATETLSSPPLISYIEADSPAERCGVLQIGDRVMAINGIPTEDSTFEEASQLLRDSSITSKVTLEIEFDVAESVIPSSGTFHVKLPKKHNVELGITISSPSSRKPGDPLVISDIKKGSVAHRTGTLELGDKLLAIDNIRLDNCSMEDAVQILQQCEDLVKLKIRKDEDNSDEQESSGAIIYTVELKRYGGPLGITISGTEEPFDPIIISSLTKGGLAERTGAIHIGDRILAINSSSLKGKPLSEAIHLLQMAGETVTLKIKKQTDAQSASSPKKFPISSHLSDLGDVEEDSSPAQKPGKLSDMYPSTVPSVDSAVDSWDGSAIDTSYGTQGTSFQASGYNFNTYDWRSPKQRGSLSPVTKPRSQTYPDVGLSYEDWDRSTASGFAGAADSAETEQEENFWSQALEDLETCGQSGILRELEEKADRRVSLRNMTLLATIMSGSTMSLNHEAPTPRSQLGRQASFQERSSSRPHYSQTTRSNTLPSDVGRKSVTLRKMKQEIKEIMSPTPVELHKVTLYKDSDMEDFGFSVADGLLEKGVYVKNIRPAGPGDLGGLKPYDRLLQVNHVRTRDFDCCLVVPLIAESGNKLDLVISRNPLASQKSIDQQSLPGDWSEQNSAFFQQPSHGGNLETREPTNTL
partner: B1 partner
B4: 14-3-3 protein sigma (Homo sapiens), P31947 (parent)
chain: B2 chain
partner: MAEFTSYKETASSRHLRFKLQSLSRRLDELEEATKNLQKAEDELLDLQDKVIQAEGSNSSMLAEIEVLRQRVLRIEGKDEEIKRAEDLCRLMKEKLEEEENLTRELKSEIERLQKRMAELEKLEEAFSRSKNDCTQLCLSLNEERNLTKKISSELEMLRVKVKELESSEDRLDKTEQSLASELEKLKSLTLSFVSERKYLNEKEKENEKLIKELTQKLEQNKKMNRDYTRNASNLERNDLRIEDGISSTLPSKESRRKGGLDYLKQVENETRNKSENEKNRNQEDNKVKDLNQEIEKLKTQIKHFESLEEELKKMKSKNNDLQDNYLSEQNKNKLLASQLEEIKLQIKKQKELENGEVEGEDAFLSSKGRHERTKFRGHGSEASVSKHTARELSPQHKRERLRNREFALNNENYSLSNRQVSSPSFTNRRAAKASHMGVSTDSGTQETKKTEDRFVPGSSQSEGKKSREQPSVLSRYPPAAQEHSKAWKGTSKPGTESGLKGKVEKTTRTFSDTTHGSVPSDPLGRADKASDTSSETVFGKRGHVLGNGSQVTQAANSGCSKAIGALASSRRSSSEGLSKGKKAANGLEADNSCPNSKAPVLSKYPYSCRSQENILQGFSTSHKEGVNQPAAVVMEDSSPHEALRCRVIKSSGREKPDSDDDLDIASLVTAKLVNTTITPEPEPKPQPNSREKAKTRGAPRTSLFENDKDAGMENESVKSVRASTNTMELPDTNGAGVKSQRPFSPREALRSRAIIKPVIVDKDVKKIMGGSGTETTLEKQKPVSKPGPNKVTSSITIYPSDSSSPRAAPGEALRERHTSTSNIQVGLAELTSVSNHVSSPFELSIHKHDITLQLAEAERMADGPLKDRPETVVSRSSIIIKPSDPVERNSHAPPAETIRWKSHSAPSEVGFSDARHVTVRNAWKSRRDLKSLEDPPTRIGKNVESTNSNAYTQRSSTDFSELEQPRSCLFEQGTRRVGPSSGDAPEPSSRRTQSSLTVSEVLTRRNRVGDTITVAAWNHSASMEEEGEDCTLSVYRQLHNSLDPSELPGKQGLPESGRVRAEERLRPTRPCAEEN
B5: 14-3-3 protein sigma (Homo sapiens), P31947 (parent)
chain: B2 chain
partner: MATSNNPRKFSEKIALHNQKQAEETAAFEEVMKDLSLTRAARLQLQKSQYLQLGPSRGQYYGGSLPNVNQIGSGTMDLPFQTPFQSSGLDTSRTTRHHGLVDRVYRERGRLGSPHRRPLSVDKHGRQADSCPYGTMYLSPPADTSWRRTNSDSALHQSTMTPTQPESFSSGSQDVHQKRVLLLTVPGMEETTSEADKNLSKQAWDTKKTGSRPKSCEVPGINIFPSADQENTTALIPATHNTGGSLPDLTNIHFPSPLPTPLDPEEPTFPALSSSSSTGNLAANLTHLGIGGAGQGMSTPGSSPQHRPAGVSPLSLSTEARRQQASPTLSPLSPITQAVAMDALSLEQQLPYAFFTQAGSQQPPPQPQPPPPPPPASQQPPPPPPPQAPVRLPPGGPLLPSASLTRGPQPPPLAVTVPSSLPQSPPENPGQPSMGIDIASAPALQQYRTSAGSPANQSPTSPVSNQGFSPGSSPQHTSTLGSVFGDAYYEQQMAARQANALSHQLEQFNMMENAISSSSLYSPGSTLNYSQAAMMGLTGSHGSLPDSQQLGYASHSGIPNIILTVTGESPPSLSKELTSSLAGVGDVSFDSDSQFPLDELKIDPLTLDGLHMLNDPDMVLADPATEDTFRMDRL

Variants of: B1
Settings: with 1433g_human YWHAG

Variant | effect of a mutation on the interaction
S121A;S123A;S131A;S133A;S143A;S158A;S160A;S199A;S201A;S249A;S253A;T255A | disrupting interaction strength

Variants of: B2
Settings: with vip2_human PPIP5K2, O43314

Variant | effect of a mutation on the interaction
MERASLIQKAKLAEQAERYEDMAAFMKGAVEKGEELSCEERNLLSVAYENVVGGQEAAWRVLSSIEQKSNEEGSEEKGPEVREYREKVETELQGVCDTVLGLLDSHLIKEAGDAESRVFYLKMKGDYYRYLAEVATGDDKKRIIDSARSAYQEAMDISKKEMPPTNPIRLGLALNFSDFHYEIANSPEEAISLAKTTFDEAMADLHTLSEDSYKDSTLIMQLLRDNLTLWTADNAGEEGGEAPQEPQS [K49E;R56E;V178D] | decreasing interaction strength

Variants of: B3
Settings: with 1433g_human YWHAG

Variant | effect of a mutation on the interaction
T17A;S43A;S901A;T920A | disrupting interaction strength

Variants of: B4
Settings: with luzp1_human LUZP1, Q86V48

Variant | effect of a mutation on the interaction
MERASLIQKAKLAEQAERYEDMAAFMKGAVEKGEELSCEERNLLSVAYENVVGGQEAAWRVLSSIEQKSNEEGSEEKGPEVREYREKVETELQGVCDTVLGLLDSHLIKEAGDAESRVFYLKMKGDYYRYLAEVATGDDKKRIIDSARSAYQEAMDISKKEMPPTNPIRLGLALNFSDFHYEIANSPEEAISLAKTTFDEAMADLHTLSEDSYKDSTLIMQLLRDNLTLWTADNAGEEGGEAPQEPQS [K49E;R56E;V178D] | decreasing interaction strength

Variants of: B5
Settings: with crtc1_human CRTC1, Q6UUV9

Variant | effect of a mutation on the interaction
MERASLIQKAKLAEQAERYEDMAAFMKGAVEKGEELSCEERNLLSVAYENVVGGQEAAWRVLSSIEQKSNEEGSEEKGPEVREYREKVETELQGVCDTVLGLLDSHLIKEAGDAESRVFYLKMKGDYYRYLAEVATGDDKKRIIDSARSAYQEAMDISKKEMPPTNPIRLGLALNFSDFHYEIANSPEEAISLAKTTFDEAMADLHTLSEDSYKDSTLIMQLLRDNLTLWTADNAGEEGGEAPQEPQS [K49E;R56E;V178D] | decreasing interaction strength
